The results in this text go back to patent US7351689.

Holding throughout (assay): cell-based or functional assay
Test [1] deals with T1, zcyto20 (IL-28A), human (human) (UniProt Q8IZJ0).
T1 sequence: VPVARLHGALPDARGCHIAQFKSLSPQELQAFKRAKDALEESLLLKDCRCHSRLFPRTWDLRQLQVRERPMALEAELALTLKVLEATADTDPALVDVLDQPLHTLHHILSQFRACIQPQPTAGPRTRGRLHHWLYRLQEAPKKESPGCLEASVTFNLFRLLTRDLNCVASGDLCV

For test [2], the target named is zcyto21 (SEQ ID NO:15) (human) (UniProt Q8IU54).
Test [3] has as its target T2, zcyto24 (mouse IL-28) (mouse) (UniProt Q4VK74).
T2 sequence: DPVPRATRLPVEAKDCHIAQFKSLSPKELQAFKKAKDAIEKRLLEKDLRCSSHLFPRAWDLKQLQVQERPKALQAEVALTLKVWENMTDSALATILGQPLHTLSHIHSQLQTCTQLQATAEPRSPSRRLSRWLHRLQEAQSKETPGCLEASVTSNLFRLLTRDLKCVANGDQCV

Test [4] concerns the target human IL-28 receptor on transfected 293 HEK cells (IL-28 receptor alpha subunit with endogenous CRF2-4) (human).

zcyto21 (SEQ ID NO:15) (human), sequence (Q8IU54 other isoform, or with tags, fused parts or gaps): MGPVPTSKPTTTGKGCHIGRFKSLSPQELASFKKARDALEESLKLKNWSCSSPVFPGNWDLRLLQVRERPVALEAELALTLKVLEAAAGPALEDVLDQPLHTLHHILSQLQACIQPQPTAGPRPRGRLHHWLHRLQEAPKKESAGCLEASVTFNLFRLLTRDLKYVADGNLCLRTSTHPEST
human IL-28 receptor on transfected 293 HEK cells (IL-28 receptor alpha subunit with endogenous CRF2-4) (human), sequence (Q8IU57 whole entry, chain 1 of 2): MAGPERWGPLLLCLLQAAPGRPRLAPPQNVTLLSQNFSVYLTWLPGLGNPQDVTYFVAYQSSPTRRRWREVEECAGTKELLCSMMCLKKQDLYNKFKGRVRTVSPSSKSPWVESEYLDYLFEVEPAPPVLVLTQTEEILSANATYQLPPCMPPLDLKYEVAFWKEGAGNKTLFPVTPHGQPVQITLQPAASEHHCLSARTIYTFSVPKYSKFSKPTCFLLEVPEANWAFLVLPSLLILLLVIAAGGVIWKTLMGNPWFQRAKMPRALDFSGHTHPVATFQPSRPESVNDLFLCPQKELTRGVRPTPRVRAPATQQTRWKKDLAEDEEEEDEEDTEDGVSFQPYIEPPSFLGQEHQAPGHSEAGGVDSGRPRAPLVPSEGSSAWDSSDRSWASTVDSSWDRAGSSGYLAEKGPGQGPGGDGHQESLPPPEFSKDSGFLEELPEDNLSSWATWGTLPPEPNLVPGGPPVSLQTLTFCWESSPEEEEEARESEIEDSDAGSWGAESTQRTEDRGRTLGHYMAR
human IL-28 receptor on transfected 293 HEK cells (IL-28 receptor alpha subunit with endogenous CRF2-4) (human), sequence (Q08334 whole entry, chain 2 of 2, further chain): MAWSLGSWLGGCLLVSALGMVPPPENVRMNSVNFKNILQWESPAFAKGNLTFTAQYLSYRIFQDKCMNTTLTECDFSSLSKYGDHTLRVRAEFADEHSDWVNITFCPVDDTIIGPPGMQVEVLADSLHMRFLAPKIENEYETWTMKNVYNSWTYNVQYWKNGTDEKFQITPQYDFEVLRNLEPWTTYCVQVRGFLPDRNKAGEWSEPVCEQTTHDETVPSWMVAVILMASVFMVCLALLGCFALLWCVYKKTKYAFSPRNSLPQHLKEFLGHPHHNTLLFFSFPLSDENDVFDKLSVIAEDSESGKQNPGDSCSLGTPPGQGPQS

B1: human zcytor19-Fc/human CRF2-4-Fc heterodimer (Fc fusion, from a related filing, not shown: a dimerising Fc or GST)
chain 1: RPRLAPPQNVTLLSQNFSVYLTWLPGLGNPQDVTYFVAYQSSPTRRRWREVEECAGTKELLCSMMCLKKQDLYNKFKGRVRTVSPSSKSPWVESEYLDYLFEVEPAPPVLVLTQTEEILSANATYQLPPCMPPLDLKYEVAFWKEGAGNKTLFPVTPHGQPVQITLQPAASEHHCLSARTIYTFSVPKYSKFSKPTCFLLEVPEANWA
chain 2: MVPPPENVRMNSVNFKNILQWESPAFAKGNLTFTAQYLSYRIFQDKCMNTTLTECDFSSLSKYGDHTLRVRAEFADEHSDWVNITFCPVDDTIIGPPGMQVEVLADSLHMRFLAPKIENEYETWTMKNVYNSWTYNVQYWKNGTDEKFQITPQYDFEVLRNLEPWTTYCVQVRGFLPDRNKAGEWSEPVCEQTTHDETVPS
modifications: left off: a dimerising Fc or GST
In the case of B1, the Percent Inhibition of Ligand-induced Interferon Stimulated Response Element (ISRE) Signaling by Soluble Receptors (10 ng/ml ligand, 10 micrograms/ml soluble receptor) in test [1] turned out to be 16%; in test [2], 16%; in test [3], 47%.

B2: human CRF2-4-Fc homodimer (Fc fusion, from a related filing)
chain: MVPPPENVRMNSVNFKNILQWESPAFAKGNLTFTAQYLSYRIFQDKCMNTTLTECDFSSLSKYGDHTLRVRAEFADEHSDWVNITFCPVDDTIIGPPGMQVEVLADSLHMRFLAPKIENEYETWTMKNVYNSWTYNVQYWKNGTDEKFQITPQYDFEVLRNLEPWTTYCVQVRGFLPDRNKAGEWSEPVCEQTTHDETVPS
modifications: left off: a dimerising Fc or GST
Turning to B2, the Percent Inhibition of Ligand-induced Interferon Stimulated Response Element (ISRE) Signaling by Soluble Receptors (10 ng/ml ligand, 10 micrograms/ml soluble receptor) was 80% in test [1], 79% in test [2] and 82% in test [3].

B3: human zcytor19-Fc homodimer (Fc fusion, not shown: a dimerising Fc or GST)
chain: RPRLAPPQNVTLLSQNFSVYLTWLPGLGNPQDVTYFVAYQSSPTRRRWREVEECAGTKELLCSMMCLKKQDLYNKFKGRVRTVSPSSKSPWVESEYLDYLFEVEPAPPVLVLTQTEEILSANATYQLPPCMPPLDLKYEVAFWKEGAGNKTLFPVTPHGQPVQITLQPAASEHHCLSARTIYTFSVPKYSKFSKPTCFLLEVPEANWA
As to B3, the Percent Inhibition of Ligand-induced Interferon Stimulated Response Element (ISRE) Signaling by Soluble Receptors (10 ng/ml ligand, 10 micrograms/ml soluble receptor) in test [1] stood at 92%; in test [2] it was 45%; in test [3], 90%.

B4: murine zcytor19-Ig homodimer (Fc fusion, mouse, UniProt Q8CGK5 21-227, looked up, not shown: a dimerising Fc or GST)
chain: RPRLAPPRNVTLFSQNFTVYLTWLPGLGSPPNVTYFVTYQSYIKTGWRPVEHCAGIKALVCPLMCLKKLNLYSKFKGRVQAASAHGRSPRVESRYLEYLFDVELAPPTLVLTQMEKILRVNATYQLPPCMPSLELKYQVEFWKEGLGSKTLFPDTPYGQPVQIPLQQGASRRHCLSARTVYTLIDIKYSQFSEPSCIFLEAPGDKRA
Regarding B4, the Percent Inhibition of Ligand-induced Interferon Stimulated Response Element (ISRE) Signaling by Soluble Receptors (10 ng/ml ligand, 10 micrograms/ml soluble receptor) in test [1] came out at 91%; in test [2], 103%; in test [3] it was 89%.

B5: IL-28B (SEQ ID NO: 6) (ligand)
chain: VPVARLRGALPDARGCHIAQFKSLSPQELQAFKRAKDALEESLLLKDCKCRSRLFPRTWDLRQLQVRERPVALEAELALTLKVLEATADTDPALGDVLDQPLHTLHHILSQLRACIQPQPTAGPRTRGRLHHWLHRLQEAPKKESPGCLEASVTFNLFRLLTRDLNCVASGDLCV
With B5, the ISRE Signaling of Transfected 293 Cells Following Class II Cytokine Stimulation (Fold Induction), ISRE-Luc./IL-28R, IL-28B 125 ng/ml (fold induction) in test [4] worked out at 104.
